Results: US20150037868
Changes are numbered by the printed parent chain.

What was measured:
[1] = target: Pgi-HRV-I526 (Pgi with HRV 3C recognition sequence inserted after amino acid 526)
[2] = target: T1, TktA variant with HRV protease cleavage motif inserted after amino acid 635
T1 chain: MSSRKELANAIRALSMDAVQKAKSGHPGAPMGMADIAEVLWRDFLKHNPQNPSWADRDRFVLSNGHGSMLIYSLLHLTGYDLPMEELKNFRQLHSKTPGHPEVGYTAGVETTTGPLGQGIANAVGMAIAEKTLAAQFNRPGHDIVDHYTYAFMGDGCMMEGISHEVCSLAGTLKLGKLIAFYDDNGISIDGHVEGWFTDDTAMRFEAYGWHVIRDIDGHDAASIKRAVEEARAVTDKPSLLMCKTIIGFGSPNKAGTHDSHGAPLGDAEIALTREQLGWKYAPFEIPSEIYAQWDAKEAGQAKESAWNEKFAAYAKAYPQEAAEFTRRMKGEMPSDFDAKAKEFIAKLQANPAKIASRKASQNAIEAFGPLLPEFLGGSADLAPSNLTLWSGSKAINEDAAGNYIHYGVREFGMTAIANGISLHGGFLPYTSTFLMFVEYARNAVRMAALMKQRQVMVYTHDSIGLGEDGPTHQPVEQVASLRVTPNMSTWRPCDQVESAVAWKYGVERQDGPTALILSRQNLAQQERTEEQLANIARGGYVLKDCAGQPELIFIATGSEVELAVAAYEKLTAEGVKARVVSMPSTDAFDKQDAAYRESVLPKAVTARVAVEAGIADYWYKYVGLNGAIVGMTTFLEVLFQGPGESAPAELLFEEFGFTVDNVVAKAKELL

[3] = target: T2, TktA variant with HRV protease cleavage motif inserted after amino acid 636
T2 chain: T1 chain with L636G, E637L, V638E, L639V, F640L, Q641F, G642Q, P643G, G644P

[4] = target: T3, TktA variant with HRV protease cleavage motif inserted after amino acid 637
T3 chain: T1 chain with L636G, V638L, L639E, F640V, Q641L, G642F, P643Q, E645P

[5] = target: T4, TktA variant with HRV protease cleavage motif inserted after amino acid 638
T4 chain: T1 chain with L636G, V638S, F640E, Q641V, G642L, P643F, G644Q, E645G, S646P

[6] = target: T5, TktA variant with HRV protease cleavage motif inserted after amino acid 640
T5 chain: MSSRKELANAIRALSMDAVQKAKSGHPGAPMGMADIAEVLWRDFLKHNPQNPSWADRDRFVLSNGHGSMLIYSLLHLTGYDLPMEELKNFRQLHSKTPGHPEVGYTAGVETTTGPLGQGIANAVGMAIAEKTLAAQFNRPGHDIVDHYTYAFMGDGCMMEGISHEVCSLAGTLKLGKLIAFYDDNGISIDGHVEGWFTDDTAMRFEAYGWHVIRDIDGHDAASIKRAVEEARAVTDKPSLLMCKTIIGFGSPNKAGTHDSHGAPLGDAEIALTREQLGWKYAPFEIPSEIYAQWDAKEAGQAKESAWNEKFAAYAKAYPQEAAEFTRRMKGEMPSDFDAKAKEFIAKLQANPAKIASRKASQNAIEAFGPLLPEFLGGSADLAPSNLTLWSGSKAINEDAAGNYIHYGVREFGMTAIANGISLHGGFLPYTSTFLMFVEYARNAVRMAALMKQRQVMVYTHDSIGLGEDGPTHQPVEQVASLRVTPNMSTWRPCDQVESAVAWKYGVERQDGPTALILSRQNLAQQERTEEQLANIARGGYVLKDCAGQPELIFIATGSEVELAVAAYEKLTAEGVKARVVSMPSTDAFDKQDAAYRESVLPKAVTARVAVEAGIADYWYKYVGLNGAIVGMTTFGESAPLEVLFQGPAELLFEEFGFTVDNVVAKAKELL

[7] = target: T6, wild-type TktA protein (transketolase A of Escherichia coli)
T6 chain: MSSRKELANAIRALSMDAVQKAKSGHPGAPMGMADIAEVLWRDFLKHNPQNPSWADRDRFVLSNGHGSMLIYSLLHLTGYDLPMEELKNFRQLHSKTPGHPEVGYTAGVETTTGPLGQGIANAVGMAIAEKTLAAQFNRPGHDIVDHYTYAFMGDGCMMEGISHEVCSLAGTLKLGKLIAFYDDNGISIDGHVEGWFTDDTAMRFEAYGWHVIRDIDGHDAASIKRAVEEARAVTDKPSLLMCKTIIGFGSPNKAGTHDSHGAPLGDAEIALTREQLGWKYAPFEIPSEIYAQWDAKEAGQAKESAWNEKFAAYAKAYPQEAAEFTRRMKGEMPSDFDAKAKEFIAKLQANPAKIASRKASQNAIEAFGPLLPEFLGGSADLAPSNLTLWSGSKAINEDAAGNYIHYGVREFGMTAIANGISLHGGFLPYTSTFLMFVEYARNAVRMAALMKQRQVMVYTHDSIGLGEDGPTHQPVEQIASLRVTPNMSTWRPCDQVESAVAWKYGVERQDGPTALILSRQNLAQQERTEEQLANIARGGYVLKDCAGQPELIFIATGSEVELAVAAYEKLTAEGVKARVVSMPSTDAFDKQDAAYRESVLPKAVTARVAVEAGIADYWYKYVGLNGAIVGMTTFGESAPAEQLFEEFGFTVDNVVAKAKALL

B1: HRV 3C protease (codon-optimized for expression in E. coli), cytoplasmic (protein)
chain: MGPEEEFGMSLIKHNSCVITTENGKFTGLGVYDRFVVVPTHADPGKEIQVDGITTKVIDSYDLYNKNGIKLEITVLKLDRNEKFRDIRRYIPNNEDDYPNCNLALLANQPEPTIINVGDVVSYGNILLSGNQTARMLKYSYPTKSGYCGGVLYKIGQVLGIHVGGNGRDGFSAMLLRSYFTDVQ
B1 showed a Pgi activity in clarified lysate after 2 h IPTG induction of cytoplasmic HRV 3C protease (pGLC221, no OmpA leader); no-protease strain 1.3 (µmol/min/mg total protein) [1] of -0.01, a growth rate in minimal glucose medium, HRV protease +inducer (2% arabinose, pGLC217); -inducer value 0.58 [2] of 0.47 and a growth rate in minimal glucose medium, HRV protease +inducer (2% arabinose, pGLC217); -inducer value 0.43 [3] of 0.17. The growth rate in minimal glucose medium, HRV protease +inducer (2% arabinose, pGLC217); -inducer value 0.40 [4] was 0.11, the growth rate in minimal glucose medium, HRV protease +inducer (2% arabinose, pGLC217); -inducer value 0.13 [5] was 0.08 and the growth rate in minimal glucose medium, HRV protease +inducer (2% arabinose, pGLC217); -inducer value 0.55 [6] was 0.34. The growth rate in minimal glucose medium, HRV protease +inducer (2% arabinose, pGLC217); -inducer value 0.60 [7] was 0.57.

B2: HRV 3C protease with an N-terminal OmpA leader sequence (periplasmic) (protein)
chain: GPEEEFGMSLIKHNSCVITTENGKFTGLGVYDRFVVVPTHADPGKEIQVDGITTKVIDSYDLYNKNGIKLEITVLKLDRNEKFRDIRRYIPNNEDDYPNCNLALLANQPEPTIINVGDVVSYGNILLSGNQTARMLKYSYPTKSGYCGGVLYKIGQVLGIHVGGNGRDGFSAMLLRSYFTDVQ
Protein B2 has a Pgi activity in clarified lysate after 2 h IPTG induction of periplasmically sequestered HRV 3C protease (pGLC089, OmpA leader); no-protease strain 1.3 (µmol/min/mg total protein) [1] of 0.01.

B3: tobacco etch virus (TEV) protease (protein)
chain: GESLFKGPRDYNPISSTICHLTNESDGHTTSLYGIGFGPFIITNKHLFRRNNGTLLVQSLHGVFKVKNTTTLQQHLIDGRDMIIIRMPKDFPPFPQKLKFREPQREERICLVTTNFQTKSMSSMVSDTSCTFPSSDGIFWKHWIQTKDGQCGSPLVSTRDGFIVGIHSASNFTNTNNYFTSVPKNFMELLTNQEAQQWVSGWRLNADSVLWGGHKVFMSKPEEPFQPVKEATQLMNELVYSQ
Protein B3 has a growth rate in minimal glucose medium, TEV protease control +inducer (2% arabinose, pGLC219); -inducer value 0.52 [2] of 0.52, a growth rate in minimal glucose medium, TEV protease control +inducer (2% arabinose, pGLC219); -inducer value 0.39 [3] of 0.42 and a growth rate in minimal glucose medium, TEV protease control +inducer (2% arabinose, pGLC219); -inducer value 0.46 [4] of 0.46. For the same protein, the growth rate in minimal glucose medium, TEV protease control +inducer (2% arabinose, pGLC219); -inducer value 0.18 [5] was 0.18, the growth rate in minimal glucose medium, TEV protease control +inducer (2% arabinose, pGLC219); -inducer value 0.48 [6] was 0.52 and the growth rate in minimal glucose medium, TEV protease control +inducer (2% arabinose, pGLC219); -inducer value 0.55 [7] was 0.53.
